The source of these data is US20220363757A1 (SYMPHOGEN A S, published 2022).

Changes are numbered by the printed parent chain.

The chains are these.
T1: human LAG-3 ECD human IgG1 Fc fusion (human, UniProt P18627 23-450)
T1 construct: not shown: human IgG1 Fc, AA P101-K330
T1 sequence: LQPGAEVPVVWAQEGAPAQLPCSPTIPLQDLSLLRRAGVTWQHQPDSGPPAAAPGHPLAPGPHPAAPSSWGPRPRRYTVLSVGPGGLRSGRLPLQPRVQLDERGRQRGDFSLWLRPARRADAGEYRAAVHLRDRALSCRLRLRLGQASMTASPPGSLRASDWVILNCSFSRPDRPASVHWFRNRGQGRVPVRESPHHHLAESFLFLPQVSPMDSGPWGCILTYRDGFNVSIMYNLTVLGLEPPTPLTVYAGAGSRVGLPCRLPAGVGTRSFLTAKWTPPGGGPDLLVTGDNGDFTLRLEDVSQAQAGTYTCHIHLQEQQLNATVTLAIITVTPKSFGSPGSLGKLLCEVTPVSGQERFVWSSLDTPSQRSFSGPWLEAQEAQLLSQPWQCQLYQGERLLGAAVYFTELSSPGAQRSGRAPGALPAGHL

T2: human LAG-3 domain 1-2 Fc fusion, point mutation #30 G83A (human, UniProt P18627 23-266)
T2 construct: not shown: human IgG1 Fc, AA P101-K330
T2 sequence: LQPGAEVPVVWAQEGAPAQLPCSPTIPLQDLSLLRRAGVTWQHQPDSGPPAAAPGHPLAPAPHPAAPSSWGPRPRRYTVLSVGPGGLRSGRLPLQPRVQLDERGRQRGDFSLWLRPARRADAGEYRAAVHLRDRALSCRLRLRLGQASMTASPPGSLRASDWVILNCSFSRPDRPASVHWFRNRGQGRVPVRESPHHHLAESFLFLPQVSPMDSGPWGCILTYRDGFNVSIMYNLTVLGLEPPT

T3: human LAG-3 domain 1-2 Fc fusion, point mutation #11 L56A (human, UniProt P18627 23-266)
T3 construct: not shown: human IgG1 Fc, AA P101-K330
T3 sequence: T2 sequence with L34A, A61G

T4: human LAG-3 domain 1-2 Fc fusion, point mutation #69 R129A (human, UniProt P18627 23-266)
T4 construct: not shown: human IgG1 Fc, AA P101-K330
T4 sequence: T2 sequence with A61G, R107A

T5: human LAG-3 domain 1-2 Fc fusion, point mutation #75 R141A (human, UniProt P18627 23-266)
T5 construct: not shown: human IgG1 Fc, AA P101-K330
T5 sequence: T2 sequence with A61G, R119A

T6: human LAG-3 domain 1-2 Fc fusion, point mutation #74 P138A (human, UniProt P18627 23-266)
T6 construct: not shown: human IgG1 Fc, AA P101-K330
T6 sequence: T2 sequence with A61G, P116A

T7: human LAG-3 domain 1-2 Fc fusion, point mutation #10 S54A (human, UniProt P18627 23-266)
T7 construct: not shown: human IgG1 Fc, AA P101-K330
T7 sequence: T2 sequence with S32A, A61G

T8: human LAG-3 domain 1-2 Fc fusion, point mutation #54 R110A (human, UniProt P18627 23-266)
T8 construct: not shown: human IgG1 Fc, AA P101-K330
T8 sequence: T2 sequence with A61G, R88A

B1: Fab fragment of antibody 15572 (Fab, V domains shown, not shown: a dimerising Fc or GST)
VH: QLQLQESGPGLVKPSETLSLTCTVSGDSISSSSYYWGWIRQPPGKGLEWIGSIFYSGNTYYNPSLKSRVTISVDTSKNQFSLKLSSVTAADTAVYYCAREDDFLTDYYGAFDIWGQGTMVTVSS
VL: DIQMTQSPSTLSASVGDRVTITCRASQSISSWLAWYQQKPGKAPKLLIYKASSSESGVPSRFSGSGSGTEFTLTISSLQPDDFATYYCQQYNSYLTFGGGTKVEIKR
notes: monomeric Fab made by GingisKHAN digestion of the IgG1
B2: Fab fragment of antibody 15011 (Fab, V domains shown, not shown: a dimerising Fc or GST)
VH: EVQLLESGGGLVQPGGSLRLSCAASGFDFRSYAMMWVRQAPGKGLEWVGGINGEVGGSNTYYAPAVKGRATISRDNSKNTLYLQMNSLRAEDTAVYYCVKGAGACGICNDDIDAWGQGTLVTVSS
VL: SYELTQDPAVSVALGQTVRITCSGAGSYAGSYYYGWHQQKPGQAPVTVIYDNDKRPSNIPDRFSGSSSGNTASLTITGAQAEDEADYYCGSTNDNDDGGLFGSGTKVTVLG
notes: as for B1
B3: Fab fragment of antibody 15532 (Fab, V domains shown, not shown: a dimerising Fc or GST)
VH: QVQLQQWGAGLLRPSETLSLTCAVYGESFSGYYWNWIRQPPGKGLEWIGEINHSGSTNYNPSLKSRVTISVDTSKTQFSLKLSSVTAADTAVYYCARGWDLLDWNDYWNEYWGQGTLVTVSS
VL: EIVLTQSPATLSLSPGERATLSCRASQSVSSYLAWYQQKPGQAPRLLIYDASNRATGIPARFSGSGSGTDFTLTISSLEPEDFAVYYCQQRSNWPLTFGGGTKVEIKR
notes: as for B1
B4: Fab fragment of antibody 15431 (Fab, V domains shown, not shown: a dimerising Fc or GST)
VH: QVQLQQSGPGLVKPSQTLSLTCAISGDSVSSNSAAWNWIRQSPSRGLEWLGRTYYRSKWYNDYAVSVKSRITINPDTSKNQFSLQLNSVTPEDTAVYYCARDDDWNDFDYWGQGTLVTVSS
VL: B3 VL
notes: as for B1

The target of one experiment is T1, human LAG-3 ECD human IgG1 Fc fusion. As to the kind of experiment: SPR, Fab over captured LAG-3 ECD-Fc. (In general: Surface plasmon resonance follows binding to a sensor surface in real time, without labels.)
Procedure: Antigens were purified using standard procedures and captured onto an G-a-hu-IgG Fc SensEye® (Ssens BV, The Netherlands) for 15 minutes using a Continuous Flow Microspotter (CFM, Wasatch Microfluidics, Salt Lake City, US). After spotting, the SensEye® was positioned in the IBIS MX96 biosensor and remaining capture sites blocked. […] Fab association was performed for 15 minutes and antigen dissociation was performed for 15 minutes. The recorded binding responses were fitted to a simple Langmuir 1:1 binding model with Scrubber 2 software for calculation of the on-rate (kon or ka), off-rate (koff or kd) and affinity (KL) constants.
As to B1, the Kd was 27 nM, the koff was determined as 0.003 s⁻¹ and the kon was determined as 110000 M⁻¹ s⁻¹.

As to B2, binding was put at a Kd of 4.3 nM, the koff amounted to 0.00048 s⁻¹ and the on-rate (kon) was found to be 110000 M⁻¹ s⁻¹.

In the case of B3, the Kd is 5.8 nM, the dissociation rate constant (koff) came out at 0.00065 s⁻¹ and the association rate constant (kon) was determined as 110000 M⁻¹ s⁻¹.

The molecule B4 returned a Kd of 30 nM, a dissociation rate constant (koff) of 0.002 s⁻¹ and an on-rate constant (kon) of 66000 M⁻¹ s⁻¹.

For a further experiment, the target named is T2, human LAG-3 domain 1-2 Fc fusion, point …. In words: SPR, Fab over captured mutant LAG-3-Fc.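 Note: fc fusion variants captured on anti-human IgG Fc sensor, Fab injected with association then dissociation phases, KD obtained from Langmuir one-to-one fit.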
Procedure: (§1) The LAG-3 fusion proteins were immobilized onto a G-a-hu-IgG Fc SensEye® (Ssens BV, The Netherlands) for 15 minutes using a Continuous Flow Microspotter (CFM, Wasatch Microfluidics, Salt Lake City, US). After spotting, the SensEye® was positioned in an IBIS MX96 biosensor and captured proteins were evaluated for binding affinity. […] Fab association was performed for 15 minutes and antigen dissociation was performed for 15 minutes. The recorded binding responses were fitted to a simple Langmuir 1:1 binding model with Scrubber 2 software for calculation of the on-rate (kon or ka), off-rate (koff or kd) and affinity (KD) constants.
On to B1, for which the “KD mutant/KD wild type” value came to 0.5 fold.

As for B2, the “KD mutant/KD wild type” value stood at 0.7 fold.

As for B3, the “KD mutant/KD wild type” value came out at 1.1 fold.

Take B4: the “KD mutant/KD wild type” value was 0.5 fold.

For another experiment, the target named is T3, human LAG-3 domain 1-2 Fc fusion, point …. As to the kind of experiment: SPR, Fab over captured mutant LAG-3-Fc.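 Note: fc fusion variants captured on anti-human IgG Fc sensor, Fab injected with association then dissociation phases, KD obtained from Langmuir one-to-one fit.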
Procedure: as §1
In the case of B1, the “KD mutant/KD wild type” value was 0.7 fold.

Consider B2, for which the “KD mutant/KD wild type” value amounted to 0.7 fold.

B3: the “KD mutant/KD wild type” value worked out at 1.2 fold.

For the molecule B4, the “KD mutant/KD wild type” value turned out to be 0.3 fold.

Another experiment addresses T4, human LAG-3 domain 1-2 Fc fusion, point …. In words: SPR, Fab over captured mutant LAG-3-Fc.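 Note: fc fusion variants captured on anti-human IgG Fc sensor, Fab injected with association then dissociation phases, KD obtained from Langmuir one-to-one fit.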
Procedure: as §1
As for B1, the binding result is “no binding (tested: 300 nM)”.

As to B2, the “KD mutant/KD wild type” value was found to be 0.7 fold.

Consider B3, for which the “KD mutant/KD wild type” value was determined as 3 fold.

In the case of B4, the binding result was “no binding (tested: 300 nM)”.

The target in another experiment is T5, human LAG-3 domain 1-2 Fc fusion, point …. As to the kind of experiment: SPR, Fab over captured mutant LAG-3-Fc.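 Note: fc fusion variants captured on anti-human IgG Fc sensor, Fab injected with association then dissociation phases, KD obtained from Langmuir one-to-one fit.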
Procedure: as §1
On to B1, for which the “KD mutant/KD wild type” value is 0.9 fold.

For the molecule B2, the “KD mutant/KD wild type” value worked out at 1.1 fold.

For the molecule B3, the “KD mutant/KD wild type” value amounted to 0.7 fold.

For the molecule B4, the “KD mutant/KD wild type” value came out at 1 fold.

For a further experiment, the target named is T6, human LAG-3 domain 1-2 Fc fusion, point …. In words: SPR, Fab over captured mutant LAG-3-Fc.
Procedure: as §1
For the molecule B1, the binding result was “no binding (tested: 300 nM)”.

As for B2, the “KD mutant/KD wild type” value was found to be 0.7 fold.

As for B3, the “KD mutant/KD wild type” value amounted to 2.7 fold.

As to B4, the binding result is recorded as “no binding (tested: 300 nM)”.

For another experiment, the target named is T7, human LAG-3 domain 1-2 Fc fusion, point …. As to the kind of experiment: SPR, Fab over captured mutant LAG-3-Fc.
Procedure: as §1
B1: the “KD mutant/KD wild type” value was found to be 0.7 fold.

For the molecule B2, the “KD mutant/KD wild type” value was found to be 0.8 fold.

Turning to B3, the “KD mutant/KD wild type” value came out at 0.7 fold.

Take B4: the “KD mutant/KD wild type” value amounted to 0.5 fold.

A further experiment deals with T8, human LAG-3 domain 1-2 Fc fusion, point …. In words: SPR, Fab over captured mutant LAG-3-Fc.
Procedure: as §1
For B1, the “KD mutant/KD wild type” value turned out to be 0.6 fold.

Consider B2, for which the binding result was “no binding (tested: 300 nM)”.

As for B3, the “KD mutant/KD wild type” value amounted to 0.9 fold.

On to B4, for which the “KD mutant/KD wild type” value is 0.9 fold.

As a reminder, the Kd is the equilibrium constant for the complex coming apart. A low value points to a tighter complex. Usually koff stands for the first-order rate constant of dissociation. The low end stands for a long-lived complex, the high end for a short-lived complex. One may read the kon as the rate constant with which the complex forms. Read a high kon as faster complex formation.
